From patent US20180273587A1 (AILERON THERAPEUTICS, published 2018)
Starred links: 1 amine or outer side, 2 acyl side, 3 side chain; linkers in the order of their positions; H or OH if unused. Positions of bridges follow the written chain, without caps; N, C: chain ends. Non-standard residues stand in square brackets, D forms with d. hhL = hhLeu, CC(C)CCC[C@H](N[*:1])C(=O)[*:2]; Phe(4-F) = N[C@@H](Cc1ccc(F)cc1)C(=O)O; 2Nal = N[C@@H](Cc1ccc2ccccc2c1)C(=O)O; tBuAla = CC(C)(C)C[C@H](N)C(=O)O; R8 = C=CCCCCCC[C@@](C)(N)C(=O)O; Cha = N[C@@H](CC1CCCCC1)C(=O)O; αMeL = CC(C)C[C@](C)(N)C(=O)O; Cba = N[C@@H](CC1CCC1)C(=O)O; Chg = N[C@H](C(=O)O)C1CCCCC1; hLeu = CC(C)CC[C@H](N)C(=O)O; S5 = C=CCCC[C@](C)(N)C(=O)O

B1: SEQ ID NO: 1696 (peptide)
peptide: Ac-IWIAQA[2Nal]R[R8]IGDAFN[S5]YYA-NH2
modifications: staple 9-16
SMILES: CC[C@H](C)[C@H](NC(C)=O)C(=O)N[C@@H](Cc1c[nH]c2ccccc12)C(=O)N[C@H](C(=O)N[C@@H](C)C(=O)N[C@@H](CCC(N)=O)C(=O)N[C@@H](C)C(=O)N[C@@H](Cc1ccc2ccccc2c1)C(=O)N[C@@H](CCCNC(=N)N)C(=O)N[C@]1(C)CCCCCCC=CCCC[C@@](C)(C(=O)N[C@@H](Cc2ccc(O)cc2)C(=O)N[C@@H](Cc2ccc(O)cc2)C(=O)N[C@@H](C)C(N)=O)NC(=O)[C@H](CC(N)=O)NC(=O)[C@H](Cc2ccccc2)NC(=O)[C@H](C)NC(=O)[C@H](CC(=O)O)NC(=O)CNC(=O)[C@H]([C@@H](C)CC)NC1=O)[C@@H](C)CC
notes: also called Ac-IWIAQA2NalR$r8IGDAFN$YYA-NH2
B2: SEQ ID NO: 1711 (peptide)
peptide: Ac-IW[tBuAla]AQALR[R8]IGDAFN[S5]YYA-NH2
modifications: staple 9-16
SMILES: CC[C@H](C)[C@H](NC(C)=O)C(=O)N[C@@H](Cc1c[nH]c2ccccc12)C(=O)N[C@@H](CC(C)(C)C)C(=O)N[C@@H](C)C(=O)N[C@@H](CCC(N)=O)C(=O)N[C@@H](C)C(=O)N[C@@H](CC(C)C)C(=O)N[C@@H](CCCNC(=N)N)C(=O)N[C@]1(C)CCCCCCC=CCCC[C@@](C)(C(=O)N[C@@H](Cc2ccc(O)cc2)C(=O)N[C@@H](Cc2ccc(O)cc2)C(=O)N[C@@H](C)C(N)=O)NC(=O)[C@H](CC(N)=O)NC(=O)[C@H](Cc2ccccc2)NC(=O)[C@H](C)NC(=O)[C@H](CC(=O)O)NC(=O)CNC(=O)[C@H]([C@@H](C)CC)NC1=O
notes: also called Ac-IWTbaAQALR$r8IGDAFN$YYA-NH2
B3: SEQ ID NO: 1705 (peptide)
peptide: Ac-[αMeL]WIAQALR[R8]IGDAFN[S5]YYA-NH2
modifications: staple 9-16
SMILES: CC[C@H](C)[C@H](NC(=O)[C@H](Cc1c[nH]c2ccccc12)NC(=O)[C@](C)(CC(C)C)NC(C)=O)C(=O)N[C@@H](C)C(=O)N[C@@H](CCC(N)=O)C(=O)N[C@@H](C)C(=O)N[C@@H](CC(C)C)C(=O)N[C@@H](CCCNC(=N)N)C(=O)N[C@]1(C)CCCCCCC=CCCC[C@@](C)(C(=O)N[C@@H](Cc2ccc(O)cc2)C(=O)N[C@@H](Cc2ccc(O)cc2)C(=O)N[C@@H](C)C(N)=O)NC(=O)[C@H](CC(N)=O)NC(=O)[C@H](Cc2ccccc2)NC(=O)[C@H](C)NC(=O)[C@H](CC(=O)O)NC(=O)CNC(=O)[C@H]([C@@H](C)CC)NC1=O
B4: SEQ ID NO: 1699 (peptide)
peptide: Ac-IWIAQALR[R8][hLeu]GDAFN[S5]YYA-NH2
modifications: staple 9-16
SMILES: CC[C@H](C)[C@H](NC(C)=O)C(=O)N[C@@H](Cc1c[nH]c2ccccc12)C(=O)N[C@H](C(=O)N[C@@H](C)C(=O)N[C@@H](CCC(N)=O)C(=O)N[C@@H](C)C(=O)N[C@@H](CC(C)C)C(=O)N[C@@H](CCCNC(=N)N)C(=O)N[C@]1(C)CCCCCCC=CCCC[C@@](C)(C(=O)N[C@@H](Cc2ccc(O)cc2)C(=O)N[C@@H](Cc2ccc(O)cc2)C(=O)N[C@@H](C)C(N)=O)NC(=O)[C@H](CC(N)=O)NC(=O)[C@H](Cc2ccccc2)NC(=O)[C@H](C)NC(=O)[C@H](CC(=O)O)NC(=O)CNC(=O)[C@H](CCC(C)C)NC1=O)[C@@H](C)CC
B5: SEQ ID NO: 1710 (peptide)
peptide: Ac-IWIAQALR[R8]IGDAFN[S5]Y[Phe(4-F)]A-NH2
modifications: staple 9-16
SMILES: CC[C@H](C)[C@H](NC(C)=O)C(=O)N[C@@H](Cc1c[nH]c2ccccc12)C(=O)N[C@H](C(=O)N[C@@H](C)C(=O)N[C@@H](CCC(N)=O)C(=O)N[C@@H](C)C(=O)N[C@@H](CC(C)C)C(=O)N[C@@H](CCCNC(=N)N)C(=O)N[C@]1(C)CCCCCCC=CCCC[C@@](C)(C(=O)N[C@@H](Cc2ccc(O)cc2)C(=O)N[C@@H](Cc2ccc(F)cc2)C(=O)N[C@@H](C)C(N)=O)NC(=O)[C@H](CC(N)=O)NC(=O)[C@H](Cc2ccccc2)NC(=O)[C@H](C)NC(=O)[C@H](CC(=O)O)NC(=O)CNC(=O)[C@H]([C@@H](C)CC)NC1=O)[C@@H](C)CC
B6: SEQ ID NO: 1700 (peptide)
peptide: Ac-IWIAQALR[R8][Cha]GDAFN[S5]YYA-NH2
modifications: staple 9-16
SMILES: CC[C@H](C)[C@H](NC(C)=O)C(=O)N[C@@H](Cc1c[nH]c2ccccc12)C(=O)N[C@H](C(=O)N[C@@H](C)C(=O)N[C@@H](CCC(N)=O)C(=O)N[C@@H](C)C(=O)N[C@@H](CC(C)C)C(=O)N[C@@H](CCCNC(=N)N)C(=O)N[C@]1(C)CCCCCCC=CCCC[C@@](C)(C(=O)N[C@@H](Cc2ccc(O)cc2)C(=O)N[C@@H](Cc2ccc(O)cc2)C(=O)N[C@@H](C)C(N)=O)NC(=O)[C@H](CC(N)=O)NC(=O)[C@H](Cc2ccccc2)NC(=O)[C@H](C)NC(=O)[C@H](CC(=O)O)NC(=O)CNC(=O)[C@H](CC2CCCCC2)NC1=O)[C@@H](C)CC
B7: SEQ ID NO: 1701 (peptide)
peptide: Ac-IWIAQALR[R8][tBuAla]GDAFN[S5]YYA-NH2
modifications: staple 9-16
SMILES: CC[C@H](C)[C@H](NC(C)=O)C(=O)N[C@@H](Cc1c[nH]c2ccccc12)C(=O)N[C@H](C(=O)N[C@@H](C)C(=O)N[C@@H](CCC(N)=O)C(=O)N[C@@H](C)C(=O)N[C@@H](CC(C)C)C(=O)N[C@@H](CCCNC(=N)N)C(=O)N[C@]1(C)CCCCCCC=CCCC[C@@](C)(C(=O)N[C@@H](Cc2ccc(O)cc2)C(=O)N[C@@H](Cc2ccc(O)cc2)C(=O)N[C@@H](C)C(N)=O)NC(=O)[C@H](CC(N)=O)NC(=O)[C@H](Cc2ccccc2)NC(=O)[C@H](C)NC(=O)[C@H](CC(=O)O)NC(=O)CNC(=O)[C@H](CC(C)(C)C)NC1=O)[C@@H](C)CC
B8: SEQ ID NO: 1706 (peptide)
peptide: Ac-IW[αMeL]AQALR[R8]IGDAFN[S5]YYA-NH2
modifications: staple 9-16
SMILES: CC[C@H](C)[C@H](NC(C)=O)C(=O)N[C@@H](Cc1c[nH]c2ccccc12)C(=O)N[C@@](C)(CC(C)C)C(=O)N[C@@H](C)C(=O)N[C@@H](CCC(N)=O)C(=O)N[C@@H](C)C(=O)N[C@@H](CC(C)C)C(=O)N[C@@H](CCCNC(=N)N)C(=O)N[C@]1(C)CCCCCCC=CCCC[C@@](C)(C(=O)N[C@@H](Cc2ccc(O)cc2)C(=O)N[C@@H](Cc2ccc(O)cc2)C(=O)N[C@@H](C)C(N)=O)NC(=O)[C@H](CC(N)=O)NC(=O)[C@H](Cc2ccccc2)NC(=O)[C@H](C)NC(=O)[C@H](CC(=O)O)NC(=O)CNC(=O)[C@H]([C@@H](C)CC)NC1=O
notes: also called Ac-IWAmLAQALR$r8IGDAFN$YYA-NH2
B9: SEQ ID NO: 1698 (peptide)
peptide: Ac-IWIAQALR[R8][Cba]GDAFN[S5]YYA-NH2
modifications: staple 9-16
SMILES: CC[C@H](C)[C@H](NC(C)=O)C(=O)N[C@@H](Cc1c[nH]c2ccccc12)C(=O)N[C@H](C(=O)N[C@@H](C)C(=O)N[C@@H](CCC(N)=O)C(=O)N[C@@H](C)C(=O)N[C@@H](CC(C)C)C(=O)N[C@@H](CCCNC(=N)N)C(=O)N[C@]1(C)CCCCCCC=CCCC[C@@](C)(C(=O)N[C@@H](Cc2ccc(O)cc2)C(=O)N[C@@H](Cc2ccc(O)cc2)C(=O)N[C@@H](C)C(N)=O)NC(=O)[C@H](CC(N)=O)NC(=O)[C@H](Cc2ccccc2)NC(=O)[C@H](C)NC(=O)[C@H](CC(=O)O)NC(=O)CNC(=O)[C@H](CC2CCC2)NC1=O)[C@@H](C)CC
B10: SEQ ID NO: 1702 (peptide)
peptide: Ac-IWIAQALR[R8][hhL]GDAFN[S5]YYA-NH2
modifications: staple 9-16
SMILES: CC[C@H](C)[C@H](NC(C)=O)C(=O)N[C@@H](Cc1c[nH]c2ccccc12)C(=O)N[C@H](C(=O)N[C@@H](C)C(=O)N[C@@H](CCC(N)=O)C(=O)N[C@@H](C)C(=O)N[C@@H](CC(C)C)C(=O)N[C@@H](CCCNC(=N)N)C(=O)N[C@]1(C)CCCCCCC=CCCC[C@@](C)(C(=O)N[C@@H](Cc2ccc(O)cc2)C(=O)N[C@@H](Cc2ccc(O)cc2)C(=O)N[C@@H](C)C(N)=O)NC(=O)[C@H](CC(N)=O)NC(=O)[C@H](Cc2ccccc2)NC(=O)[C@H](C)NC(=O)[C@H](CC(=O)O)NC(=O)CNC(=O)[C@H](CCCC(C)C)NC1=O)[C@@H](C)CC
B11: SEQ ID NO: 1712 (peptide)
peptide: Ac-IW[hLeu]AQALR[R8]IGDAFN[S5]YYA-NH2
modifications: staple 9-16
SMILES: CC[C@H](C)[C@H](NC(C)=O)C(=O)N[C@@H](Cc1c[nH]c2ccccc12)C(=O)N[C@@H](CCC(C)C)C(=O)N[C@@H](C)C(=O)N[C@@H](CCC(N)=O)C(=O)N[C@@H](C)C(=O)N[C@@H](CC(C)C)C(=O)N[C@@H](CCCNC(=N)N)C(=O)N[C@]1(C)CCCCCCC=CCCC[C@@](C)(C(=O)N[C@@H](Cc2ccc(O)cc2)C(=O)N[C@@H](Cc2ccc(O)cc2)C(=O)N[C@@H](C)C(N)=O)NC(=O)[C@H](CC(N)=O)NC(=O)[C@H](Cc2ccccc2)NC(=O)[C@H](C)NC(=O)[C@H](CC(=O)O)NC(=O)CNC(=O)[C@H]([C@@H](C)CC)NC1=O
notes: also called Ac-IWhLAQALR$r8IGDAFN$YYA-NH2
B12: SEQ ID NO: 1713 (peptide)
peptide: Ac-IW[Chg]AQALR[R8]IGDAFN[S5]YYA-NH2
modifications: staple 9-16
SMILES: CC[C@H](C)[C@H](NC(C)=O)C(=O)N[C@@H](Cc1c[nH]c2ccccc12)C(=O)N[C@H](C(=O)N[C@@H](C)C(=O)N[C@@H](CCC(N)=O)C(=O)N[C@@H](C)C(=O)N[C@@H](CC(C)C)C(=O)N[C@@H](CCCNC(=N)N)C(=O)N[C@]1(C)CCCCCCC=CCCC[C@@](C)(C(=O)N[C@@H](Cc2ccc(O)cc2)C(=O)N[C@@H](Cc2ccc(O)cc2)C(=O)N[C@@H](C)C(N)=O)NC(=O)[C@H](CC(N)=O)NC(=O)[C@H](Cc2ccccc2)NC(=O)[C@H](C)NC(=O)[C@H](CC(=O)O)NC(=O)CNC(=O)[C@H]([C@@H](C)CC)NC1=O)C1CCCCC1
notes: also called Ac-IWChgAQALR$r8IGDAFN$YYA-NH2

What follows are binders tested against BCL-2 (UniProt P10415 1-217, limits assumed) (assay: Ki table, method not stated).
Chain of BCL-2 (P10415 1-217 limits assumed): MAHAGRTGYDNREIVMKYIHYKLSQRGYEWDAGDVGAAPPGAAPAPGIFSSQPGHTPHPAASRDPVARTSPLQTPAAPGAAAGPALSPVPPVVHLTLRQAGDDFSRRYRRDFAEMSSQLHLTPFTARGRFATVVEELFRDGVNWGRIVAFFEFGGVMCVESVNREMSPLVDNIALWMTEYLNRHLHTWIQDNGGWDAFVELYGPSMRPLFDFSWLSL

Row | Ki [nM] | Binder
1 | 234 | B1
2 | 36.6 | B2
3 | 48.3 | B3
4 | 12.7 | B4
5 | 91.8 | B5
6 | 109 | B6
7 | 227 | B7
8 | 24.8 | B8
9 | 89 | B9
10 | 23.1 | B10
11 | 36.5 | B11
12 | 38.9 | B12

The binders below were run against BCL-XL (UniProt Q07817 1-209) (assay: Ki table, method not stated).
Chain of BCL-XL (Q07817 1-209): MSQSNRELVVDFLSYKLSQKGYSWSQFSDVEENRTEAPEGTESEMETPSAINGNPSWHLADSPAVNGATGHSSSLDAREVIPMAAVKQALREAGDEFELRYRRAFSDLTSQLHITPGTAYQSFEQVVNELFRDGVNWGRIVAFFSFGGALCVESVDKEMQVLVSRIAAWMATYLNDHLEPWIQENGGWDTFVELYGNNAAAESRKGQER

Row | Ki [nM] | Binder
13 | 17.3 | B1
14 | 17.2 | B2
15 | 8.4 | B3
16 | 6 | B4
17 | 9.5 | B5
18 | 7.1 | B6
19 | 35.4 | B7
20 | 7.2 | B8
21 | 27.5 | B9
22 | 4 | B10
23 | 17 | B11
24 | 20.9 | B12

Each binder was assayed against T1, MCL-1 (UniProt Q07820 172-327, limits assumed) (assay: Ki table, method not stated).
T1 construct: also called Myeloid cell leukemia 1
T1 sequence (Q07820 172-327 limits assumed): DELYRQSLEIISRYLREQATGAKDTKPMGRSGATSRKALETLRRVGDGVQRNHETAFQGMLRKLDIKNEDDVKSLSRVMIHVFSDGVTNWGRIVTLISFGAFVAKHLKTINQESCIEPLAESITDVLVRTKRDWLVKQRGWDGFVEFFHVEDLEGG

Row | Ki [nM] | Binder
25 | 120 | B1
26 | 10.9 | B2
27 | 5.2 | B3
28 | 13 | B4
29 | 4.8 | B5
30 | 15.9 | B6
31 | 13.7 | B7
32 | 19.8 | B8
33 | 26.6 | B9
34 | 34.6 | B10
35 | 3.7 | B11
36 | 4.6 | B12
